By Km is commonly meant the substrate concentration at which the rate is half of its maximum.

For 2 molecules, percent of AlpA co-sedimented with AlpC (with ATP and DNA), percent of AlpA co-sedimented with AlpC (with ATP) and Km results are on record in paper PMC4446434, “A prophage-encoded actin-like protein required for efficient viral DNA replication in bacteria” (Nucleic Acids Research, 2015).

Data set [1] deals with His10-AlpC (Cg1890), actin-like protein of the prophage CGP3 of Corynebacterium glutamicum ATCC 13032 (Corynebacterium glutamicum ATCC 13032 (prophage CGP3)). Put plainly: co-sedimentation; AlpC and AlpA (or control protein) equimolar, 5 uM each, 20 ul, EMSA buffer (20 mM Tris/HCl pH 7.5, 50 mM KCl, 10 mM MgCl2, 5% glycerol, 0.5 mM EDTA, 0.005% Triton X-100), 30°C 30 min, with or without 1 mM ATP and/or 100 ng DNA (500 bp upstream of alpA); 16 100 x g 1 h; SDS-PAGE, Coomassie, ImageQuant TL.

Substrate in data set [2]: Nc1nc2c(ncn2[C@@H]2O[C@H](COP(=O)(O)OP(=O)(O)OP(=O)(O)O)[C@@H](O)[C@H]2O)c(=O)[nH]1
Kind of data set: purified protein. Type of data set: biochemical, Corynebacterium glutamicum. As to conditions: 1 uM protein, equimolar MgSO4, 50 mM Tris/HCl pH 7.5, 150 mM NaCl, 10% glycerol, 30 °C.

Substrate in data set [3]: Nc1ncnc2c1ncn2[C@@H]1O[C@H](COP(=O)(O)OP(=O)(O)OP(=O)(O)O)[C@@H](O)[C@H]1O
Kind of data set: purified protein. The data set is classed as biochemical, Corynebacterium glutamicum. As to conditions: 1 uM protein, equimolar MgSO4, 50 mM Tris/HCl pH 7.5, 150 mM NaCl, 10% glycerol, 30 °C.

In data set [1], “His10-AlpA (Cg1891), adaptor protein of the prophage CGP3 of Corynebacterium glutamicum (natural protein)” displayed a percent of AlpA co-sedimented with AlpC (with ATP and DNA) of 38%; a percent of AlpA co-sedimented with AlpC (with ATP) of 30%.

B1: AlpC (Corynebacterium glutamicum ATCC 13032) (protein)
chain: MTSAVNVQKKTTQKVLKPINTKNYSATDAVQTGQHGSALGSNIGVYTYTAGLDIGNGYVKGIIEATGDTTGTSVDVIDMPSAATRMSRPTEVPEPDDTAVAVTGADFFNHIDTNFNSPMVKGNYRYLCGTRSLSARGSLEEFDLVGNRSKAEQELSKVLVMAVLAAKAVKDFVAAHGRIPQVAVEGDPGVLRVHTYLALALPINEYVGHRHGYKAQFMGDGAANPAVHVVTVNNFETPATVQLIFERVEVIAEGASAQYAITAGGEVLMNGMLADVRSKGLALEGVTAGDVLQARHTIGVDVGEGTVNFPVFTDGRFNHDASRAYDKGYGTVLESAIQAMDDAGLAHNFNSRKQLADYLQRPPSALKRNFYTRVEQHVDQEAVFFVQDVAAEFARVLSDVGALTEVAFVYGGGSGPLRDRLHEALLIKAAEMGSEDTFPVLYLDSAYSRKLNREGLMIAARSIAAKARK
notes: N-terminal His10 tag kept (His10-AlpC), expressed in E. coli BL21 (DE3) pLysS, HisTrap and Superdex 200 purified; encoded by cryptic prophage CGP3; polymerizes with nucleotide and Mg2+
As to B1, the Km in “purified protein [2]” was found to be 430 µM; in the data set “purified protein [3]”, 200 µM.
